Measured values published in US20240100159A1, “USE OF IL-7R-ALPHA-GAMMA AGONIST PEPTIDES IN CELL MANUFACTURING” (MEDIKINE, INC., priority 2022, published 2024).
Read-outs that look alike come from different tables or passages of the source. Bridge positions count the residues as written; N and C are the ends. Ends that are not written are not given here.

Columns and labels:
IL-7Rα subunit = target: T1, IL-7Rα subunit (Homo sapiens, UniProt P16871); assay: Competitive binding assays, unique binding site on the IL-7Rα subunit; settings: against IL-7Rα ligands SEQ ID NO: 455-459
T1 sequence (P16871 21-459): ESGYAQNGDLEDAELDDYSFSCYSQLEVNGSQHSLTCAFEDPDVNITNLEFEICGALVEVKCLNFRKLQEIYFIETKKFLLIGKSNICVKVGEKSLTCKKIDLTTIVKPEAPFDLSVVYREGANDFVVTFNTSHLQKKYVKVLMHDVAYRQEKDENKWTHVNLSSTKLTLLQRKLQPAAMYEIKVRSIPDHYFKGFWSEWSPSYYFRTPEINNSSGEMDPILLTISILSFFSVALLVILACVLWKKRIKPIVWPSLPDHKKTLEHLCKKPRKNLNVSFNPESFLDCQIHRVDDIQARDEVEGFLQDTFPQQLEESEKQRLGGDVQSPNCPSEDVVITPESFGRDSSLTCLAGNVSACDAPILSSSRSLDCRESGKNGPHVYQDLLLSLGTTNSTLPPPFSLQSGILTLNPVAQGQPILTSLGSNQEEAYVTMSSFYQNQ
From the text: The unique binding site of the IL-7Rα subunit for these IL-7Rα ligands can be characterized using competitive binding assays as described, for example, in Example 12.

IL-7Rγc subunit = target: T2, IL-7Rγc subunit (Homo sapiens, UniProt P31785); assay: Competitive binding assays, specific binding site on the IL-7Rγc subunit; settings: against Rγc ligands SEQ ID NO: 461-465
T2 sequence (P31785 23-369): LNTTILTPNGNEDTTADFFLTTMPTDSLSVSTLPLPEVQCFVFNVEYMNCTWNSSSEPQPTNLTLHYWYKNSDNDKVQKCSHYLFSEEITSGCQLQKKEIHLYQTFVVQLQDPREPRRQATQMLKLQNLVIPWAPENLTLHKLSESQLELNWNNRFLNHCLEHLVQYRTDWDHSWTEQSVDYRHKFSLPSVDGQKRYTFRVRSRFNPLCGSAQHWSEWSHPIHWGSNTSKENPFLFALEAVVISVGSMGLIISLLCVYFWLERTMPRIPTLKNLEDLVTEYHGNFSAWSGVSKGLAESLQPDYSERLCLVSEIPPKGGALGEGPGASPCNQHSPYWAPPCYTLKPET
From the text: The specific binding site of the IL-7Rγc subunit for these Rγc ligands can be characterized using competitive binding assays.

[1] = target: T3, hu-IL-7Rγc subunit (human), P31785
T3 chain: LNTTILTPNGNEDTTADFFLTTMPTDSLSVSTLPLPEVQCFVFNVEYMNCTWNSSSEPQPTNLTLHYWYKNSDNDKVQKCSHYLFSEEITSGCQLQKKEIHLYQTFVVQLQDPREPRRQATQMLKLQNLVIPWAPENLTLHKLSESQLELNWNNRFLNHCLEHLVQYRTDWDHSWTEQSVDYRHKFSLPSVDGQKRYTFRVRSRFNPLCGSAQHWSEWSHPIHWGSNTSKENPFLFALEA

[2] = target: T3, hu-IL-7Rγc subunit (human), P31785; assay: phage ELISA competition assay
[3] = target: T3, hu-IL-7Rγc subunit (human), P31785; assay: not stated; binding to the specific binding site on the IL-7Rγc subunit
[4] = target: T4, hu-IL-7Rα subunit (human), P16871; assay: not stated; binding to a unique binding site on the IL-7Rα subunit
T4 chain: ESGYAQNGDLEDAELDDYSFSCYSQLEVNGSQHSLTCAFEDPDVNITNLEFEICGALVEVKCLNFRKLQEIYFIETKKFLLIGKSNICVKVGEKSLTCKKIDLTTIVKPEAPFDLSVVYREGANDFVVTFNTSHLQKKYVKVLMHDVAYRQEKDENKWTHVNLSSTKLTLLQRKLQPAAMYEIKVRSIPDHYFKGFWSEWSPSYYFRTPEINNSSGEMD

hu-IL-7Rγc subunit [5] = target: T5, hu-IL-7Rγc subunit (human, UniProt P31785 23-262, limits assumed); assay: phage ELISA competition assay
T5 construct: also called human Rγc subunit; common γc receptor
T5 sequence (looked up): T3 chain

hu-IL-7Rγc subunit [6] = target: T5, hu-IL-7Rγc subunit; assay: not stated; binding to the specific binding site on the IL-7Rγc subunit
hu-IL-7Rα subunit [7] = target: T6, hu-IL-7Rα subunit (human, UniProt P16871 21-239, limits assumed); assay: phage ELISA competition assay
T6 construct: also called human interleukin-7 receptor subunit α; CD127
T6 sequence (looked up): T4 chain

hu-IL-7Rα subunit [8] = target: T6, hu-IL-7Rα subunit; assay: not stated; binding to a unique binding site on the IL-7Rα subunit

V V C Q D W E G V E L C W Q (VVCQDWEGVELCWQ) [SEQ ID NO: 261]
competition for binding to the unique binding site on the IL-7Rα subunit with the group of IL-7Rα ligands (IL-7Rα subunit): does not compete

SEQ ID NO: 460: An IL-7Rα ligand having the amino acid sequence of SEQ ID NO: 460; sequence not printed in the text (YDCRIAQVGELCDL)
competition for binding to the specific binding site on the IL-7Rγc subunit with the group of Rγc ligands (IL-7Rγc subunit): does not compete

VVCQDWEGVELCWQ (modifications not checked) [SEQ ID NO 261]
IC50 [1]: < 100 µM
IC50 [2]: < 100 µM

VVCQDWEGVELCWQGG (modifications not checked) [SEQ ID NO 325]
IC50 [2]: < 100 µM

GGVVCQDWEGVELCWQ (modifications not checked) [SEQ ID NO 326]
IC50 [2]: < 100 µM

KVCEMWGGVLLCWN (modifications not checked) [SEQ ID NO 461]
IC50 [3]: < 10 µM

VYCAEIGEYRVCRQ (modifications not checked) [SEQ ID NO 456]
IC50 [4]: < 10 µM

YMACSSGLSLCRLS (modifications not checked) [SEQ ID NO 457]
IC50 [4]: < 10 µM

GGVVCQDWEGVELCWQGG (disulfide 5-14 (inferred), also called Rγc ligand) [SEQ ID NO 327]
IC50 (hu-IL-7Rγc subunit [5]): < 100 µM

RTCTEWENVVLCWV (also called Rγc ligand) [SEQ ID NO 462]
IC50 (hu-IL-7Rγc subunit [6]): < 10 µM

MCWLEWGEWVGSCL (also called Rγc ligand) [SEQ ID NO 463]
IC50 (hu-IL-7Rγc subunit [6]): < 10 µM

CPSMLQGPERTWVC (also called Rγc ligand) [SEQ ID NO 464]
IC50 (hu-IL-7Rγc subunit [6]): < 10 µM

GWGIPWCTLDPGSLQCAWLGKH (also called IL-7Rα ligand) [SEQ ID NO 116]
IC50 (hu-IL-7Rα subunit [7]): < 10 µM

YRSGHGIPWCMLDPGGLQCSWL (also called IL-7Rα ligand) [SEQ ID NO 117]
IC50 (hu-IL-7Rα subunit [7]): < 10 µM

HCKHWDLESLLLCV (also called IL-7Rα ligand) [SEQ ID NO 101]
IC50 (hu-IL-7Rα subunit [7]): < 10 µM

QCIHWDIETLLSCV (also called IL-7Rα ligand) [SEQ ID NO 455]
IC50 (hu-IL-7Rα subunit [8]): < 10 µM

QCVHWDLDTLFGCIREQLEL (also called IL-7Rα ligand) [SEQ ID NO 458]
IC50 (hu-IL-7Rα subunit [8]): < 10 µM

GGVPWCTLDPGSLQCAWF (not fully specified (bridges); cysteine pairing not given here, also called IL-7Rα ligand) [SEQ ID NO 459]
IC50 (hu-IL-7Rα subunit [8]): < 10 µM

HLGVPWCTLDPGSIQCAWLAKH (also called IL-7Rα ligand) [SEQ ID NO 102]
IC50 (hu-IL-7Rα subunit [7]): < 10 µM

IRSCLWQPGALHCTWWAEEEPV (also called IL-7Rα ligand) [SEQ ID NO 103]
IC50 (hu-IL-7Rα subunit [7]): < 10 µM

IPWCLLDPGGLQCVWL (also called IL-7Rα ligand) [SEQ ID NO 104]
IC50 (hu-IL-7Rα subunit [7]): < 10 µM

KAGSWFIPWCTLDPGSLQCAFL (also called IL-7Rα ligand) [SEQ ID NO 105]
IC50 (hu-IL-7Rα subunit [7]): < 10 µM

NPFRSVVPWCALDPGSLQCAWL (also called IL-7Rα ligand) [SEQ ID NO 106]
IC50 (hu-IL-7Rα subunit [7]): < 10 µM

QCIHWDIETLLSCV (also called IL-7Rα ligand) [SEQ ID NO 107]
IC50 (hu-IL-7Rα subunit [7]): < 10 µM

QCIHWDLESLLNCLRELKEP (also called IL-7Rα ligand) [SEQ ID NO 108]
IC50 (hu-IL-7Rα subunit [7]): < 10 µM
